Reference: article PMC6765115
Numbering of substitutions follows the chain as printed. Read-outs that look alike come from different tables or passages of the source.

T1: C.Csp231I C-ARQ (Cmut) (Citrobacter sp. (Csp231I R-M system), UniProt Q32WH4 1-98, A33G;R34E;Q37A)
T1 sequence: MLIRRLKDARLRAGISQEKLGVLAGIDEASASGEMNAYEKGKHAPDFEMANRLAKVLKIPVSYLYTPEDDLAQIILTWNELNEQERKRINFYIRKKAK

T2: C.Csp231I (C protein, WT) (Citrobacter sp. (Csp231I R-M system), UniProt Q32WH4 1-98)
T2 sequence: T1 sequence with G33A, E34R, A37Q

B1: racR (176 bp) (dsDNA)
DNA 1: GCGACGCCTAACGCAATTGTCAATAGGCTGTGCCTAATGCAGTAAGGGTAGGGATTGCCTAATGTAATGCGCATAGGAGAATATTAAGCAATGCTTAGTGGTAAAGACTTAGGCCGAGCGATAGAGCAGGCCATTAACAAAAAAATCGCATCGGGATCCGTCAAATCAAAGGCGG
DNA 2: CCGCCTTTGATTTGACGGATCCCGATGCGATTTTTTTGTTAATGGCCTGCTCTATCGCTCGGCCTAAGTCTTTACCACTAAGCATTGCTTAATATTCTCCTATGCGCATTACATTAGGCAATCCCTACCCTTACTGCATTAGGCACAGCCTATTGACAATTGCGTTAGGCGTCGC
B2: racRmut (176 bp) (dsDNA)
DNA 1: B1 DNA 1 with T95G, T96C, G98T
DNA 2: B1 DNA 2 with C78A, A80G, A81C

What was measured:
Assay in all cases: EMSA
[1] = biological target: T1, C.Csp231I C-ARQ (Cmut)
[2] = biological target: T2, C.Csp231I (C protein, WT)
[3] = biological target: T2, C.Csp231I (C protein, WT); remark: listed apart in the source

| Binder | binding result [1] | binding result [2] | binding result [3] |
| --- | --- | --- | --- |
| B1 | no binding | binds | – |
| B2 | no binding | – | no binding |
